Results as given in paper PMC9427786, “Structure–function characterization of an aldo–keto reductase involved in detoxification of the mycotoxin, deoxynivalenol” (Scientific Reports, 2022).
Read-outs that look alike come from different tables or passages of the source.

What was measured:
DepBRleg [1] = target: T1, DepBRleg (Rhizobium leguminosarum, UniProt J0WHR2); assay: NADPH oxidation at […] nm; assay type: biochemical
T1 construct: gene Rleg4DRAFT_7458; N-terminal His-tag, pET28a (NdeI/HindIII), expressed in E. coli BL21 LOBSTR; about 39 kDa protomer; octamer

DepBRleg [2] = target: T2, DepBRleg (Rhizobium leguminosarum, UniProt J0WHR2, Q294E); assay: tryptophan fluorescence quenching; assay type: binding
T2 construct: gene Rleg4DRAFT_7458; N-terminal His-tag, pET28a (NdeI/HindIII), expressed in E. coli BL21 LOBSTR; about 39 kDa protomer; octamer
Description: (§1) tryptophan fluorescence quenching on DepBRleg

DepBRleg [3] = target: T1, DepBRleg; assay: tryptophan fluorescence quenching; assay type: binding
Description: as §1

DepBRleg [4] = target: T3, DepBRleg (Rhizobium leguminosarum, UniProt J0WHR2, R290E); assay: tryptophan fluorescence quenching; assay type: binding
T3 construct: gene Rleg4DRAFT_7458; N-terminal His-tag, pET28a (NdeI/HindIII), expressed in E. coli BL21 LOBSTR; about 39 kDa protomer; octamer
Description: as §1

DepBRleg [5] = target: T4, DepBRleg (Rhizobium leguminosarum, UniProt J0WHR2, K217E); assay: tryptophan fluorescence quenching; assay type: binding
T4 construct: gene Rleg4DRAFT_7458; N-terminal His-tag, pET28a (NdeI/HindIII), expressed in E. coli BL21 LOBSTR; about 39 kDa protomer; octamer
Description: as §1

DepBRleg [6] = target: T5, DepBRleg (Rhizobium leguminosarum, UniProt J0WHR2, K217M); assay: tryptophan fluorescence quenching; assay type: binding
T5 construct: gene Rleg4DRAFT_7458; N-terminal His-tag, pET28a (NdeI/HindIII), expressed in E. coli BL21 LOBSTR; about 39 kDa protomer; octamer
Description: as §1

DepBRleg [7] = target: T6, DepBRleg (Rhizobium leguminosarum, UniProt J0WHR2, R290N); assay: tryptophan fluorescence quenching; assay type: binding
T6 construct: gene Rleg4DRAFT_7458; N-terminal His-tag, pET28a (NdeI/HindIII), expressed in E. coli BL21 LOBSTR; about 39 kDa protomer; octamer
Description: as §1

[8] = tested on: O=C1C(=O)c2ccccc2-c2ccccc21; assay: purified protein; assay type: biochemical, Rhizobium leguminosarum; details: pH 7.5; 25.0 °C
[9] = target: DepB from Rhizobium leguminosarum (DepB_(Rleg)) (Rhizobium leguminosarum); assay: SEC-MALS; P3000 single-pore GPC/SEC column; 20 mM HEPES, 150 mM NaCl, 0.02% NaN3, pH 7; protein at 0.5 mg/mL
purified protein [10] = substrate: NC(=O)C1=CN([C@@H]2O[C@H](COP(=O)(O)OP(=O)(O)OC[C@H]3O[C@@H](n4cnc5c(N)ncnc54)[C@H](OP(=O)(O)O)[C@@H]3O)[C@@H](O)[C@H]2O)C=CC1; assay: purified protein; assay type: biochemical, Rhizobium leguminosarum; details: 10 mM DL-glyceraldehyde, 100 mM HEPES pH 7.5, 298 K, 25.0 °C, varied: cofactor
purified protein [11] = substrate: O=CC(O)CO; assay: purified protein; assay type: biochemical, Rhizobium leguminosarum; details: 1 mM NADPH, 100 mM HEPES pH 7.5, 298 K, about 10% DMSO, 25.0 °C
purified protein [12] = substrate: CCCCCC=O; assay: purified protein; assay type: biochemical, Rhizobium leguminosarum; details: 1 mM NADPH, 100 mM HEPES pH 7.5, 298 K, about 10% DMSO, 25.0 °C
purified protein [13] = substrate: O=C1Nc2ccccc2C1=O; assay: purified protein; assay type: biochemical, Rhizobium leguminosarum; details: 1 mM NADPH, 100 mM HEPES pH 7.5, 298 K, about 10% DMSO, 25.0 °C
purified protein [14] = substrate: CCCC=O; assay: purified protein; assay type: biochemical, Rhizobium leguminosarum; details: 1 mM NADPH, 100 mM HEPES pH 7.5, 298 K, about 10% DMSO, 25.0 °C
purified protein [15] = substrate: CCCCCC(=O)/C=C/C=O; assay: purified protein; assay type: biochemical, Rhizobium leguminosarum; details: 1 mM NADPH, 100 mM HEPES pH 7.5, 298 K, about 10% DMSO, 25.0 °C
purified protein [16] = substrate: NC(=O)C1=CN([C@@H]2O[C@H](COP(=O)(O)OP(=O)(O)OC[C@H]3O[C@@H](n4cnc5c(N)ncnc54)[C@H](O)[C@@H]3O)[C@@H](O)[C@H]2O)C=CC1; assay: purified protein; details: 10 mM DL-glyceraldehyde, 100 mM HEPES pH 7.5, 298 K, 25.0 °C, varied: cofactor

Molecule: C=CC=O [Acrolein]
- Km (DepBRleg [1]; 1 mM NADPH, 100 mM HEPES pH 7.5, 298 K, about 10% DMSO; read-out: Km,app): 83.3 ± 6.69 µM

Molecule: NC(=O)C1=CN([C@@H]2O[C@H](COP(=O)(O)OP(=O)(O)OC[C@H]3O[C@@H](n4cnc5c(N)ncnc54)[C@H](OP(=O)(O)O)[C@@H]3O)[C@@H](O)[C@H]2O)C=CC1 [NADPH]
- Kd (DepBRleg [2]): 97.9 ± 13 µM
- Kd (DepBRleg [3]): 11.4 ± 0.84 µM
- Kd (DepBRleg [4]): 123 ± 6.2 µM
- Kd (DepBRleg [5]): 68.6 ± 8.7 µM
- Kd (DepBRleg [6]): 74.1 ± 4.6 µM
- Kd (DepBRleg [7]): 59.5 ± 4.2 µM

Molecule: O=C1C=C2C(=CCOC2O)O1 (stereo not drawn) [Patulin]
- Km (DepBRleg [1]; read-out: Km,app; 1 mM NADPH, 100 mM HEPES pH 7.5, 298 K, about 10% DMSO): 678 ± 85.5 µM

Molecule: DepBRleg (Rhizobium leguminosarum bv. trifolii WSM2297)
- Km [8]: 68.3 ± 14.3 µM

Molecule: DepB from Rhizobium leguminosarum (DepB_(Rleg)) (enzyme)
- stoichiometry N [9]: 8

Molecule: NC(=O)C1=CN([C@@H]2O[C@H](COP(=O)(O)OP(=O)(O)OC[C@H]3O[C@@H](n4cnc5c(N)ncnc54)[C@H](O)[C@@H]3O)[C@@H](O)[C@H]2O)C=CC1 [NADH]
- Kd (DepBRleg [2]): 91.2 ± 10 µM
- Kd (DepBRleg [3]): 67.3 ± 2.5 µM
- Kd (DepBRleg [4]): 119 ± 9.8 µM

B1: DepBRleg (Rhizobium leguminosarum bv. trifolii WSM2297) (protein)
chain: MDYRKLGPSGTVVTAYCLGTMTFGAEADEAASHKLLDDYFAWGGNFIDTADVYSAGKSEEIIGRWLKARPTEARQAIVATKGRFPMGNGPNDIGLSRRHLSQALDDSLRRLGLEQIDLYQMHAWDALTPIEETLRFLDDAVSSGKIGYYGFSNYVGWHIAKASEIAKARGYTRPVTLQPQYNLLMRDIELEIVAACQDAGMGLLPWSPLGGGWLTGKYKRDEMPTGATRLGENPNRGGESYAPRNAQERTWAIIGTVEEIAKARGVSMAQVALAWTAARPAITSVILGARTPEQLADNLGAMKVELSGEEMARLNEVSAPQPLDYPYGKGGINQRHRKIEGGR
- Km (purified protein [10]): 15.2 ± 1.41 µM
- kcat (purified protein [10]): 0.337 ± 0.00757 s⁻¹
- Km (purified protein [11]): 3890 ± 516 µM
- kcat (purified protein [11]): 0.782 ± 0.0803 s⁻¹
- Km (purified protein [12]): 1230 ± 231 µM
- kcat (purified protein [12]): 0.303 ± 0.0269 s⁻¹
- Km (purified protein [13]): 1780 ± 410 µM
- kcat (purified protein [13]): 6.43 ± 0.920 s⁻¹
- Km (purified protein [14]): 617 ± 33.5 µM
- kcat (purified protein [14]): 0.410 ± 0.00922 s⁻¹
- Km (purified protein [15]): 1020 ± 136 µM
- kcat (purified protein [15]): 7.90 ± 0.678 s⁻¹
- Km (purified protein [16]): 1560 ± 399 µM
- kcat (purified protein [16]): 0.0242 ± 0.00344 s⁻¹
